Where a chain is given by its changes, count along the chain named.
T1: human CDH6 (full-length, on cells) (human, UniProt P55285 54-790)
T1 construct: also called hCDH6; full-length hCDH6
T1 sequence: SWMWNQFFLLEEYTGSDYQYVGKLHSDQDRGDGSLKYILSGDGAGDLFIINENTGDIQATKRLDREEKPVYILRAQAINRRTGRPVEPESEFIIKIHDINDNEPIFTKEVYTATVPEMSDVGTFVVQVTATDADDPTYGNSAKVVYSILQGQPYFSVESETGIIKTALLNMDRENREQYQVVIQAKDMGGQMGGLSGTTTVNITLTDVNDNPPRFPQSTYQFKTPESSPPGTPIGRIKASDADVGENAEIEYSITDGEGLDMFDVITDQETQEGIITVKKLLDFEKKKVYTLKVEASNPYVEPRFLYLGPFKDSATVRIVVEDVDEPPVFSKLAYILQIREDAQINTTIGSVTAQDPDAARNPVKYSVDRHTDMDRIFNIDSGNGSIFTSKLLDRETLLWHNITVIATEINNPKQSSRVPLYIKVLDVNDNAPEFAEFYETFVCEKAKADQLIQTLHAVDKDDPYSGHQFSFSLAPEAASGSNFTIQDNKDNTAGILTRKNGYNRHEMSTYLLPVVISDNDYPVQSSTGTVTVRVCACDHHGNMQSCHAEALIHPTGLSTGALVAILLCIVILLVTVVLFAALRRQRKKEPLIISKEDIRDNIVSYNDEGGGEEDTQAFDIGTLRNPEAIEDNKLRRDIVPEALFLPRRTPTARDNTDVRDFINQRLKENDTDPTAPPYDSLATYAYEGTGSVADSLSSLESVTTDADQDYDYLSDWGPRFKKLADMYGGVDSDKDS

T2: EC3-deleted human CDH6 (EC3 deletion mutant, on cells) (human, UniProt P55285 54-790)
T2 construct: Full-length human CDH6 lacking EC3; Cloned in p3xFLAG-CMV-9; also called EC3-deleted hCDH6
T2 sequence: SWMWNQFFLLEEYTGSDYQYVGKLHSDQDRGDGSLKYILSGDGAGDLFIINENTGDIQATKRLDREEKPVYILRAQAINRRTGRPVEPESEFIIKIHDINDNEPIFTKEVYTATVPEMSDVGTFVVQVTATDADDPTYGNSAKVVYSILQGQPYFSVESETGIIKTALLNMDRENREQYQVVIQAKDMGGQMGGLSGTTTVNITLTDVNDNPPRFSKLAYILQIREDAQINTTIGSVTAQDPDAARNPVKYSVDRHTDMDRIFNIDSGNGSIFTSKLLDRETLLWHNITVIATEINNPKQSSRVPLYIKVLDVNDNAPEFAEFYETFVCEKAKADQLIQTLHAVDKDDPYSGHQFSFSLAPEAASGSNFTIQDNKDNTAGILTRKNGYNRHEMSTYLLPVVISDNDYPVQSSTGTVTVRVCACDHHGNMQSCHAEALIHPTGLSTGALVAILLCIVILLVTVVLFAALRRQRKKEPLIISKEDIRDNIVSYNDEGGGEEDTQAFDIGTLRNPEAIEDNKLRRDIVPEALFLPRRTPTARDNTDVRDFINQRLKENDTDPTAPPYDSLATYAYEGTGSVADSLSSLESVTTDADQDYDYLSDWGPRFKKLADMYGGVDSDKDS

B1: humanized anti-CDH6 antibody H02L02 (antibody, human IgG1, kappa, V domains shown)
VH: EVQLVQSGAEVKKPGASVKVSCKASGYTFTRNFMHWVRQAPGQGLEWMGWIYPGDGETEYNQKFQGRVTITADRSTSTAYMELSSLRSEDTAVYFCARGVYGGFAGGYFDFWGQGTLVTVSS
VL: DIQMTQSPSSLSASVGDRVTITCKASQNIYKNLAWYQQKPGKAPKLLIYDANTLQTGVPSRFSGSGSGSDFTLTISSLQPEDFATYFCQQYYSGWAFGQGTKVEIKR
notes: hH02 heavy chain and hL02 light chain, human IgG1/kappa; also called H02L02 antibody; humanized hG019
B2: humanized anti-CDH6 antibody H04L02 (antibody, human IgG1, kappa, V domains shown)
VH: B1 VH with E1Q, V37I, N61A, I70L, F95Y
VL: B1 VL
notes: hH04 heavy chain and hL02 light chain, human IgG1/kappa; also called H04L02 antibody; humanized hG019
B3: humanized anti-CDH6 antibody H02L03 (antibody, human IgG1, kappa, V domains shown)
VH: B1 VH
VL: B1 VL with P40L, K42E, A43G, S69T, F87Y
notes: hH02 heavy chain and hL03 light chain, human IgG1/kappa; also called H02L03 antibody; humanized hG019
B4: humanized anti-CDH6 antibody H01L02 (antibody, human IgG1, kappa)
heavy: not shown
light: DIQMTQSPSSLSASVGDRVTITCKASQNIYKNLAWYQQKPGKAPKLLIYDANTLQTGVPSRFSGSGSGSDFTLTISSLQPEDFATYFCQQYYSGWAFGQGTKVEIKRTVAAPSVFIFPPSDEQLKSGTASVVCLLNNFYPREAKVQWKVDNALQSGNSQESVTEQDSKDSTYSLSSTLTLSKADYEKHKVYACEVTHQGLSSPVTKSFNRGEC
notes: hH01 heavy chain and hL02 light chain, human IgG1/kappa; also called H01L02 antibody; humanized hG019

Molecular target: T1, human CDH6 (full-length, on cells)
Experiment: competition flow cytometry on 786-O/hCDH6 cells, unlabeled antibody varied, competitor Alexa488-labeled H01L02 at 5 nM [lower panel]
Description: The cell suspension of the 786-O/hCDH6 stably expressing cell line produced in 6)-2-2-1 was centrifuged, and the supernatant was then removed. Thereafter, the cells were suspended by the addition of labeled NOV0712 or labeled H01L02 (final concentration: 5 nM) and, further, the addition of each of the 4 humanized hG019 antibodies (clone Nos: H01L02, H02L02, H02L03 and H04L02), which had been prepared in Example 5)-5-3, or the anti-CDH6 antibody NOV0712, which had been prepared in Reference Example 1, or human IgG1 (Calbiochem) as a negative control (final concentration: as shown in the abscissa of FIG. 7). The cells were left standing at 4° C. for 1 hour. Thereafter, the cells were washed twice with PBS supplemented with 5% FBS, followed by detection using a flow cytometer (Canto II; BD Biosciences). The data was analyzed using FlowJo (TreeStar, Inc.). The abscissa depicts the final concentration of the added unlabeled antibody, and the ordinate depicts the amount of the antibody bound based on mean fluorescence intensity. When unlabeled NOV0712 is added to cells supplemented with labeled NOV0712, the amount of the labeled antibody bound is decreased by replacement with the unlabeled antibody in an addition concentration-dependent manner because they compete with each other for binding to the same epitope. […] Likewise, when each of the 4 unlabeled humanized hG019 antibodies is added to cells supplemented with labeled H01L02, the amount of the labeled antibody bound is decreased by replacement with the unlabeled antibody in an addition concentration-dependent manner because they compete with each other for binding to the same epitope.

| Binder | IC50 (read off the curve) [nM] |
| --- | --- |
| B1 | ~3 |
| B2 | ~10 |
| B3 | ~10 |
| B4 | ~5 |

Molecular target: T2, EC3-deleted human CDH6 (EC3 deletion …)
Experiment: flow cytometry, 293α cells transiently expressing EC3-deleted hCDH6 (open) against untransfected cells (shaded), APC anti-human IgG F(ab')2
Description: The cells were cultured overnight under conditions of 37° C. and 5% CO₂, and thereafter, a cell suspension was prepared. […] Thereafter, the cells were suspended by the addition of each of the 4 humanized hG019 antibodies (clone Nos: H01L02, H02L02, H02L03 and H04L02), which had been prepared in Example 5)-5-3, or the anti-CDH6 antibody NOV0712, which had been prepared in Reference Example 1, or human IgG1 (Calbiochem) as a negative control. The cells were left standing at 4° C. for 1 hour. The cells were washed twice with PBS supplemented with 5% FBS, and then suspended by the addition of APC-anti-human IgG goat F(ab′)2 (Jackson ImmunoResearch Laboratories, Inc.) that had been 500-fold diluted with PBS supplemented with 5% FBS. The cells were left standing at 4° C. for 1 hour. The cells were washed twice with PBS supplemented with 5% FBS, followed by detection using a flow cytometer (Canto II; BD Biosciences). The data was analyzed using FlowJo (TreeStar, Inc.). In the histograms of FIGS. 5-1 to 5-6, the abscissa depicts APC fluorescence intensity indicating the amount of the antibody bound, and the ordinate depicts cell count. […] Fluorescence intensity is enhanced when the antibody binds to full-length hCDH6 or each EC domain deletion mutant on the cell surface. The human IgG1 control binds to none of the transfected cells.

| Binder | binding result |
| --- | --- |
| B1 | no binding (tested: not given) |
| B2 | no binding (tested: not given) |
| B3 | no binding (tested: not given) |
| B4 | no binding (tested: not given) |

Reference: patent US20220016257A1 (Daiichi Sankyo, published 2022)
